# T1: Myc-tagged CARD-14 (full-length CARD-14 with C-terminal Myc epitopes, pCMV-Tag 5A) (human, UniProt Q9BXL6 1-1004)
# T1 construct: Expressed in 293T cells (co-immunoprecipitation, Bcl-10 phosphorylation) and Rat-1 cells (co-localization)
# T1 sequence: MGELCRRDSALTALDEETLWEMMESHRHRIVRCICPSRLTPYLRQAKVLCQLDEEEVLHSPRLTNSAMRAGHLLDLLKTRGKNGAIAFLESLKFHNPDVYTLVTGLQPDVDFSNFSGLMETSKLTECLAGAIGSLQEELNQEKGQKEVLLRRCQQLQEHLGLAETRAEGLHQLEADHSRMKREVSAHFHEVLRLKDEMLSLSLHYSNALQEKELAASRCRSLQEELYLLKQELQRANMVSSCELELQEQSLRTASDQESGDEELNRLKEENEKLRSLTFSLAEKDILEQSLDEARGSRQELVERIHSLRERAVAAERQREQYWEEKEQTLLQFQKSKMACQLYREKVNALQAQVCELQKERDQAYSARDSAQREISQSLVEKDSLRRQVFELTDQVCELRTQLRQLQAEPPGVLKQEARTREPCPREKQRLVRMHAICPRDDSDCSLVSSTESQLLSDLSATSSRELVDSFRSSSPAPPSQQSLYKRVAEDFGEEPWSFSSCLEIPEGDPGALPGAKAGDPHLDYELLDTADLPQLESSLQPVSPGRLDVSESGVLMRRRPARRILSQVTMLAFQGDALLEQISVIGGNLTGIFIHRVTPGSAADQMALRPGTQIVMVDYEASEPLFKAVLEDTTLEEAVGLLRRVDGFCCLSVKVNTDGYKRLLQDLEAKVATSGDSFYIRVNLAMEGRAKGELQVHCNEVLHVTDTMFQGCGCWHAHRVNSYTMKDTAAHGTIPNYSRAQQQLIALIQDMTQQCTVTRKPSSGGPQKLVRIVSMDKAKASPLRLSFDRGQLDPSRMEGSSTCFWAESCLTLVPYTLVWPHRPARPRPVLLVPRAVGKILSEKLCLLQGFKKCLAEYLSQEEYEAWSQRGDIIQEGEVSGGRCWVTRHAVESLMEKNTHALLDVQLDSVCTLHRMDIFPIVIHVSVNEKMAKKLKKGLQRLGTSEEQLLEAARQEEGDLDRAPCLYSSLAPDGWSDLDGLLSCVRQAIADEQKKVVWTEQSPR
# T2: CARD-14 protein labeled with 35S-methionine (human, UniProt Q9BXL6 1-1004, limits assumed, labeled with 35S-methionine)
# T2 construct: also called radiolabeled CARD-14
# T2 sequence: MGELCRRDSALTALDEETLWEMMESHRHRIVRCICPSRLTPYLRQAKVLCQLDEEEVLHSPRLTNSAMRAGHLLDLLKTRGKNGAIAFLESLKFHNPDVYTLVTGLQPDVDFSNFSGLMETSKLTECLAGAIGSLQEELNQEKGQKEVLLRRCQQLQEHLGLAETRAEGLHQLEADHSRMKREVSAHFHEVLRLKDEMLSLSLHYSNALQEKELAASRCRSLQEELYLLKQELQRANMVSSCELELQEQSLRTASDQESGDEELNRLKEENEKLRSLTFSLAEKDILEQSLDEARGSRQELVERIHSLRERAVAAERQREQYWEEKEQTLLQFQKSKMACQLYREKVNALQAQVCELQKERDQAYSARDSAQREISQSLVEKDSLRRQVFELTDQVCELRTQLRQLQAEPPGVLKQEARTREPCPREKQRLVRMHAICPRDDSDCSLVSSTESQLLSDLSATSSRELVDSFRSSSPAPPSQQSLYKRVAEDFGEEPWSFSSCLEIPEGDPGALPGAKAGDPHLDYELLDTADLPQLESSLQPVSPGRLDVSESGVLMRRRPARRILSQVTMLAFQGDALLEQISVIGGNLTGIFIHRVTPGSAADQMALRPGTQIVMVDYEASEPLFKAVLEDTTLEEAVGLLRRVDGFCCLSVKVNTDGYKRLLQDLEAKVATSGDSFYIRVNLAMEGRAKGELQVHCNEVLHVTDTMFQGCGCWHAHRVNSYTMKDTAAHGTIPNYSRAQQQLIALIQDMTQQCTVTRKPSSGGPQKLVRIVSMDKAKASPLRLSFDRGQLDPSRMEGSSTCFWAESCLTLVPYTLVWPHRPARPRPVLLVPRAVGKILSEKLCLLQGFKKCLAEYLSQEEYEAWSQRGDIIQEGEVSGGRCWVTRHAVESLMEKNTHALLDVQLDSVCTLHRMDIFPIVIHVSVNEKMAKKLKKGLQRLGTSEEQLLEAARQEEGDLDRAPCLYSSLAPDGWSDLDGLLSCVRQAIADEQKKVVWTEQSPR
# Experiments:
# [1] = molecular target: T1, Myc-tagged CARD-14 (full-length CARD-14 …); assay: co-localization by immunofluorescence in Rat-1 cells
# Method: To further confirm the interaction between CARD-14 and Bcl-10, co-localization experiments were performed with full-length CARD-14. In these studies, Rat-1 cells were transfected in PDL-coated glass chamber slides (BioCoat, Becton-Dickinson Labware) with plasmids expressing HA-tagged Bcl10 and Myc-tagged CARD-14 using FuGENE-6 (Roche Molecular Biochemicals) for 20 hours. Cells were fixed in 4% paraformaldehyde, permeabilized and blocked in buffer containing 0.4% Triton X-100, and sequentially incubated with primary and secondary antibodies: rabbit anti-HA polyclonal Y-11 (Santa Cruz Biotechnology), mouse anti-Myc monoclonal 9E10 (Oncogene Research Products), Alexa-488 Goat anti-mouse IgG (Molecular Probes) and Alexa-594 Goat anti-rabbit IgG (Molecular Probes). No cross-reactivity was observed between any of the antibodies. Images were acquired using a Nikon T200 microscope with a 60× oil objective and an Orca100 digital camera (Hammamatsu, Inc.) driven by MetaMorph software (Universal Imaging Corp.). Final images were prepared using Adobe PhotoShop.
# [2] = molecular target: T2, CARD-14 protein labeled with …; assay: GST pull-down on glutathione-sepharose, autoradiography
# Method: The interaction of radiolabeled CARD-14 with GST-Bcl-10 in vitro was also examined. Bcl-10 wild type and L41R mutant were expressed in DH5 alpha bacteria as GST fusion proteins and equal amounts of protein were immobilized on glutathione-sepharose (Amersham-Pharmacia). An equal amount of CARD-14 protein, labeled with ^35S-methionine, was incubated with the protein bound sepharose beads in 100 μl of binding buffer (50 mM Tris-Cl pH 7.6, 120 mM NaCl, 0.5% Brij and protease inhibitors) for three hours. The beads were washed four times with the same buffer and boiled in SDS sample buffer. The proteins were then resolved on a 10% SDS gel and visualized by autoradiography.
binding result [1],binding result [2],Binder
binds,,"HA-tagged Bcl10 (other, UniProt O95999 1-233, looked up, not shown: small tags and cut ends, Expressed in Rat-1 cells (co-localization) and 293T cells (phosphorylation); also called HA-Bcl-10) MEPTAPSLTEEDLTEVKKDALENLRVYLCEKIIAERHFDHLRAKKILSREDTEEISCRTSSRKRAGKLLDYLQENPKGLDTLVESIRREKTQNFLIQKITDEVLKLRNIKLEHLKGLKCSSCEPFPDGATNNLSRSNSDESNFSEKLRASTVMYHPEGESSTTPFFSTNSSLNLPVLEVGRTENTIFSSTTLPRPGDPGAPPLPPDLQLEEEGTCANSSEMFLPLRSRTVSRQ"
,no binding,"GST-Bcl-10 L41R mutant (other, UniProt O95999 1-233, looked up, Expressed in DH5 alpha bacteria and immobilized on glutathione-sepharose; also called variant of Bcl-10 with a point mutation (L41R); not shown: GST fusion partner) MEPTAPSLTEEDLTEVKKDALENLRVYLCEKIIAERHFDHRRAKKILSREDTEEISCRTSSRKRAGKLLDYLQENPKGLDTLVESIRREKTQNFLIQKITDEVLKLRNIKLEHLKGLKCSSCEPFPDGATNNLSRSNSDESNFSEKLRASTVMYHPEGESSTTPFFSTNSSLNLPVLEVGRTENTIFSSTTLPRPGDPGAPPLPPDLQLEEEGTCANSSEMFLPLRSRTVSRQ"

# From patent US6936690 (Takeda / Millennium, dated 2005)
